Source: US20260242818A1

Molecular target: barnase (Bacillus amyloliquefaciens) (UniProt P00648)
Experiment: cell-based or functional assay

Chain of UniProt P00648 (P00648 48-157 limits assumed): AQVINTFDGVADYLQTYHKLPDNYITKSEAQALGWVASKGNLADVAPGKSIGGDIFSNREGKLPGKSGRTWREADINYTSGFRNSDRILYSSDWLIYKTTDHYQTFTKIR

Substance: barstar (from UniProt P11540 2-90)
- pollen formation in F1 anthers (PI staining, confocal microscopy); TA29b::barnase × TA29b::barstar, barstar under the same promoter as barnase (pollen grains): 0
- pollen viability (FDA/PI assay) in successful rescue F1 flowers, TA29b::barnase × TA29a::barstar: 3.6%
